Target: Krüppel-like factor 9 (KLF9) (human (endogenous in MDA-MB-231), UniProt Q13886 1-244)
Test: co-IP

Sequence of Krüppel-like factor 9 (KLF9) (Q13886 whole entry): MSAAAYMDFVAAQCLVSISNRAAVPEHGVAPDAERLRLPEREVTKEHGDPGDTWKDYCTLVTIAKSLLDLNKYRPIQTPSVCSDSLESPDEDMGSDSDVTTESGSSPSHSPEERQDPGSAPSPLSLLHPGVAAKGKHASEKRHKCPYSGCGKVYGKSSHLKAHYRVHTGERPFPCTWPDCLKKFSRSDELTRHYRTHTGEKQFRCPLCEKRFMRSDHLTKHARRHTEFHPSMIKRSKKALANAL

fold increase of association after 24 h with 5 uM PF1-SID peptide: 4.6 fold | fold increase of association in PF1-SID cells against vector cells: 2.5 fold
B1: SIN3A (natural protein, UniProt Q96ST3 1-1273, looked up)
chain: MKRRLDDQESPVYAAQQRRIPGSTEAFPHQHRVLAPAPPVYEAVSETMQSATGIQYSVTPSYQVSAMPQSSGSHGPAIAAVHSSHHHPTAVQPHGGQVVQSHAHPAPPVAPVQGQQQFQRLKVEDALSYLDQVKLQFGSQPQVYNDFLDIMKEFKSQSIDTPGVISRVSQLFKGHPDLIMGFNTFLPPGYKIEVQTNDMVNVTTPGQVHQIPTHGIQPQPQPPPQHPSQPSAQSAPAPAQPAPQPPPAKVSKPSQLQAHTPASQQTPPLPPYASPRSPPVQPHTPVTISLGTAPSLQNNQPVEFNHAINYVNKIKNRFQGQPDIYKAFLEILHTYQKEQRNAKEAGGNYTPALTEQEVYAQVARLFKNQEDLLSEFGQFLPDANSSVLLSKTTAEKVDSVRNDHGGTVKKPQLNNKPQRPSQNGCQIRRHPTGTTPPVKKKPKLLNLKDSSMADASKHGGGTESLFFDKVRKALRSAEAYENFLRCLVIFNQEVISRAELVQLVSPFLGKFPELFNWFKNFLGYKESVHLETYPKERATEGIAMEIDYASCKRLGSSYRALPKSYQQPKCTGRTPLCKEVLNDTWVSFPSWSEDSTFVSSKKTQYEEHIYRCEDERFELDVVLETNLATIRVLEAIQKKLSRLSAEEQAKFRLDNTLGGTSEVIHRKALQRIYADKAADIIDGLRKNPSIAVPIVLKRLKMKEEEWREAQRGFNKVWREQNEKYYLKSLDHQGINFKQNDTKVLRSKSLLNEIESIYDERQEQATEENAGVPVGPHLSLAYEDKQILEDAAALIIHHVKRQTGIQKEDKYKIKQIMHHFIPDLLFAQRGDLSDVEEEEEEEMDVDEATGAVKKHNGVGGSPPKSKLLFSNTAAQKLRGMDEVYNLFYVNNNWYIFMRLHQILCLRLLRICSQAERQIEEENREREWEREVLGIKRDKSDSPAIQLRLKEPMDVDVEDYYPAFLDMVRSLLDGNIDSSQYEDSLREMFTIHAYIAFTMDKLIQSIVRQLQHIVSDEICVQVTDLYLAENNNGATGGQLNTQNSRSLLESTYQRKAEQLMSDENCFKLMFIQSQGQVQLTIELLDTEEENSDDPVEAERWSDYVERYMNSDTTSPELREHLAQKPVFLPRNLRRIRKCQRGREQQEKEGKEGNSKKTMENVDSLDKLECRFKLNSYKMVYVIKSEDYMYRRTALLRAHQSHERVSKRLHQRFQAWVDKWTKEHVPREMAAETSKWLMGEGLEGLVPCTTTCDTETLHFVSINKYRVKYGTVFKAP

From PMC8718897 (Translational Oncology, 2021)
